Laboratory results: the nanobody polyreactivity screen of Harvey et al. (2022)

Assay: yeast display, Sf9 membrane polyspecificity reagent, FACS + sequencing; frameworks hold sequencing errors
How it was run: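 Galactose-induced (36–48 hours) yeast carrying a synthetic nanobody display library were exposed to 10% biotinylated, detergent-solubilized Sf9 membrane reagent at 4 °C for 1 hour. FACS followed streptavidin microbead enrichment, using low and high (top ~1%) gates for expression (anti-HA) and reagent binding (streptavidin). Colony PCR, MiSeq 2 × 250 sequencing and CDR-length filtering followed. Labels for polyreactivity reflect the gate of origin.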

Sequence | polyreactivity (PSR sort gate)
QVQLVESGGGLVQAGGSLRLSSAASGNIFDYYAMGCYRQAPGKERELVASISWSGRGTYYADSVKGRFTISRDNAKNTVYVQMTSLKAEDTAVYYCAADGSTVNAPRWSDPYDYWGQGSQVTVSS | low polyreactivity
QVQLVESGGGLVQAGGSLRLSSAASGNIMDVYAMGWYRQAPGKERELVAAISGTDGSTYYADSVKGRFTISRDNAKNTVYLQMNSLKPEDTAVYYCAAEYVYFWWGENYWGQGTQVTVSS | high polyreactivity
QVQLVESGGGLVQAGGSLRLSSAASGNNFHFYAMGSYRQAPGKERELVATISWRGDGTYYADSVKGRFTISRDNAKNTVYLQMNSLKPEDTAVYYCAGRGVWPEYDYWGQGTQVNVSS | low polyreactivity
QVQLVESGGGLVQAGGSLRLSSAASGRIFARYAMGWYIQAPGKERELVAAITVSGDNTYYADSVKGRFTISRDNAKNTVYLQMNSRKPEDSADYYCDVRAVLLFGFFEYDYWGHGTQVTVSS | low polyreactivity
QVQLVESGGGLVQAGGSLRLSSAASGRIFFGNTMGWYRQAPGKERELVATIRKIGGRTYYADSVKGRFTISRDNAKNTVYLQMNSLKPEDTAVYYCATDFAPSYYPDRFDYWGQGTQVTVSS | low polyreactivity
QVQLVESGGGLVQAGGSLRLSSAASGRIFKIYPMVWYRQAPGKERELVAAISGRGGSTYYADSVKGRFTISRDNAKNTVYLQMISLKPEDTAVYYCAAVGYGFSAYSTYDYWGQGTQVTVSS | high polyreactivity
QVQLVESGGGLVQAGGSLRLSSAASGRIFKYYAMGWYRQAPGKERELVAAISWRGGRTYYADSVKGRFTISRDNAKNTVYLQMNSLKPEDTAVYYCAAEWYATMGYWGQGTQVTVSS | low polyreactivity
QVQLVESGGGLVQAGGSLRLSSAASGRIFPHNAMGWYRQAPGKERELVAAISSNGGSTYYADSVKGRFTISRDNAKNTVYLQMNSLKPEDTAVYYCAKYRYFAGDGDYWGQGTQVTVSS | low polyreactivity
QVQLVESGGGLVQAGGSLRLSSAASGRIFQRYAMGCYRQAPGKERELVAAISGSGGRTYYADSVKGRFTISRDNAKNTVYLQLNSLKPDDSAVYYCAAYPSYYADSGLRYDYWGQGTQVTVSS | high polyreactivity
QVQLVESGGGLVQAGGSLRLSSAASGRIFRWYAMGWYRQAPGKERELVATISSTGGSTYYADSVKGRFTISRDNAKNTVYLQMNSLKPEDTAVYYSNAVVYGIFLYAWYDYWGQGTQVTVSS | low polyreactivity
QVQLVESGGGLVQAGGSLRLSSAASGRIFRYYTMGWYRQAPGKERELVATITSDGRTNYADSVNGRFTISRDNAKNSVYLQMNSLKPEDTAVYYCAARYVMGGQGTSRRVGGGYWGQGTQVTVSS | high polyreactivity
QVQLVESGGGLVQAGGSLRLSSAASGRIFSRYAMGWYRQAPGKERELVAAITQSGTSTYYADSVKGRFTISRDNAKNTVYLQMNSLKPEDTAVYYCNAYRQYRYDYWGQGSQVTVSS | low polyreactivity
QVQLVESGGGLVQAGGSLRLSSAASGRIFYGYAMGWYRQAPGKERELVAGISKRGGSTRYADSVKGRFTISRDNAKNTVYLHMNSLKPEDTAVYYCNRLPYLHYAGRLTNYDYWGQGTQVTVSS | high polyreactivity
QVQLVESGGGLVQAGGSLRLSSAASGRIFYKYAMGWNRQAPGKERELVAGITGSGGSTYYADSVKGRFTISRDNAKNTVYLQMNSLKPEDTAVYYCAKRVSYDYWGQGTQVTVSS | low polyreactivity
QVQLVESGGGLVQAGGSLRLSSAASGRISDFYTMGWYRQAPGKERELVAVIRTSGGRTNYADSVKGRFTISRDNAKNTVYLQMNSLKPEDTAVYYCAARVVRYGYKYYYWGQGTQVTVSS | low polyreactivity
QVQLVESGGGLVQAGGSLRLSSAASGRTFAWNAMGWYRQAPGKERELVAAISYNGGRTYYADSVKGRFTISRDNAKNTVYLQMNSLKPEDTAVYYCAAQRYGYWGQGTQVTVSS | high polyreactivity
QVQLVESGGGLVQAGGSLRLSSAASGRTFAWYAMGWYRQAPGKERELVAAISSGGSTYYADSVKGRFTISRDNAKNTVYLQMDSLKPEDTAVYYCAAEWHYIYAYDYWGQGTQVTVSS | low polyreactivity
QVQLVESGGGLVQAGGSLRLSSAASGRTFFRSGMGWYRQAPGKEREFVAAITRSGTTTYYADSVKGRFTISRDNAKQTVYLPMNSLQPEDTAVYYCAAQRAAPVDGKSDYWGHGTQVTVSS | low polyreactivity
QVQLVESGGGLVQAGGSLRLSSAASGRTFNYYTMGWYRQAPGKERELVAAITNGGSTNYADSVKGRFTISRDNAKNTVYLQMNSLKPEDTAVYYCNADAFAFRTLHYDYWGQGTQVTVSS | low polyreactivity
QVQLVESGGGLVQAGGSLRLSSAASGRTFRGNAMGWYSQAPGKERELVAAIRWNGGSTYYADSVKGRFTISRDNAKNTVYLQMNSLKPEDTAVYYCAVSYWYSRYDYWGQGTQVTVSS | high polyreactivity
QVQLVESGGGLVQAGGSLRLSSAASGRTFSAYAMGWYRQAPGKERELVARITSVDSTNYADSVKGRFTISRDNAKNTVYLQMNSLKPEDTAVYYCNVVNEHQSDFVVPFDYNHWGQGTQVTVSS | low polyreactivity

Sequence | polyreactivity (PSR sort gate)
QVQLVESGGGLVQAGGSLRLSSAASGRTFSRYAMGWYRQAPGKERELVATISWSGGSTYYADSVKGRFTISRDNAKNTVYLQMNSLNPEDTAVYYCAAKGVYQYRFTKYGYWGQGTQVTVSS | high polyreactivity
QVQLVESGGGLVQAGGSLRLSSAASGRTFTHYAMGWYSQAPGKERELGASISDGGRTHYADSVKGRFTISRDNAKNTVSLQMNSLKPVDPAVYYCATDRYPTRRYDYWGQGSQVTVSS | low polyreactivity
QVQLVESGGGLVQAGGSLRLSSAASGRTIAYYTKGWYRQAPGKVRELVAAITWTGGRTYYPDSVKGRFTISRDIAKNTVYLQMNSLQPEDTAVYYCATQHRAGAYYLYTPYDYWGQGTQVTVSS | high polyreactivity
QVQLVESGGGLVQAGGSLRLSSAASGRTLIWYTMGWYRPAPGKERELVAAITSGGSTYYADSVKGRFTISRDNAKNTVYLQMNSLKPEDTAVYYCNARSAFWGWGYGSYDYWGQGTQVTVSS | low polyreactivity
QVQLVESGGGLVQAGGSLRLSSAASGSIFASYAMGWYRQAPGKERELVAAISRSGGSTYYADSVKGRFTISRDNAKNTVYLQMNSLIPEDTAVYYCATGKIREDDYWGQGTQVTVSS | high polyreactivity
QVQLVESGGGLVQAGGSLRLSSAASGSIFAYYAMGWSRQAPGKEWELVAAITSGGNTKYADSVKGRFTISRDNAKNTVYLQMNCLKPEDTAVYYCASYRTRALWGQGYGYWGHGTQVTVSS | high polyreactivity
QVQLVESGGGLVQAGGSLRLSSAASGSIFELNAMGWYRQAPGKERELVAAIRWRTGRTYYADSVKGRFTISRDNAKNTVYLQMNSLKPEDTAVYYCARVAPASGVRWYYYWGQGTQVTVSS | high polyreactivity
QVQLVESGGGLVQAGGSLRLSSAASGSIFLFYAMGWYRQAPGKERELVATITTGAGSTYYADSVKGRFTISRDNAKNTVFLQMNSLKPEDTAVYYCAATVSYDFGYVAVSYDYWGQGTQVTVSS | low polyreactivity
QVQLVESGGGLVQAGGSLRLSSAASGSIFNYNAMGWYRQAPGKERELVAAISSSGSTNYADSVKGRFTISRDNAKNTVYLQMNSLKPEDTAVYYCAADYGSYGVVRAVSIEYEYWGQGTQVTVSS | low polyreactivity
QVQLVESGGGLVQAGGSLRLSSAASGSIFQDYAMGWYRQEPGKERELVAGINWRGDDTYADSVKGRFTISRDNAKNTVYLQMNSLKPEDTAVYYCNAEDWGYGYDYWGQGTQVTVSS | low polyreactivity
QVQLVESGGGLVQAGGSLRLSSAASGSIFQYYTMGWYRQAPGKERELVASISSDGSTYYADSVKGRFTISRDNAKNTVYLQMNSLKPEDTAVYYCADVLWEPPVHPGYDYWGQGTQVTVSS | low polyreactivity
QVQLVESGGGLVQAGGSLRLSSAASGSIFRNAMGWYRQAPGKERELVAGINGSGGSTYYADSVKGRFTISRDNAKNTVYLQMNSLKPEDTAVYYCAAGTSKPTPIYGYWGQGTQVTVSS | low polyreactivity
QVQLVESGGGLVQAGGSLRLSSAASGSIFRSNAMGWYRQAPGKERELVAAIDYSGTSTTYADSVKGRFTISRDNAKNTVYLQMNRLKPEDTAVYYCNADGYYRGYWSGYEYWGQGTQVTVSS | low polyreactivity
QVQLVESGGGLVQAGGSLRLSSAASGSIFSIYAMGWYRQAPGKERELGAAITWSGGSTYYADSVKGRFTISRDNAKNTVYFQMNSLKPEDTAVYYCAAEIWFYYGGRKQRGGYWGQGTQVTVSS | high polyreactivity
QVQLVESGGGLVQAGGSLRLSSAASGSIFSSYAMGWYRQAPGKERELVAAITKRADRTNYADSVKGRFTISRDNAKNTVYLQMNSLKPEDTAVYYCNAEGQNDHPSNGYISYKYDYWGQGTQVTVSS | low polyreactivity
QVQLVESGGGLVQAGGSLRLSSAASGSIFVKNARGWYRQAPGKVRELVARISFSGGSTYYADSVKGRFTISRDNAKNTVYLQMNSLKPEDTAVYYCAKTVLRTEYGWWIKFDYWGQVTQVTVSS | low polyreactivity
QVQLVESGGGLVQAGGSLRLSSAASGSIFYGYAMGWYRQAPGKERELVATISWSAGSTYYADSVKGRFTISRDNAKTTVYLQMNSLKPEDTAVYYCATRVFTSSYRYRYGYWGQGTQVTVSS | high polyreactivity
QVQLVESGGGLVQAGGSLRLSSAASGSIFYRYAMGWYRQAPGKERELVAAITQSTDSTYYADSVKGRFTISRDNAKYNVYLQMNSLKPEDTAVYYCAAYLVYYRPYAYGYWGQGSQVTVSS | low polyreactivity
QVQLVESGGGLVQAGGSLRLSSAASGSIFYVYAMGWYRQAPGKERELVAAISGGGGSTYYADSVKGRFTISRDNAKNTVYLQMNSLKPEDTAVYYCAADLSGGPYLGGYDYWGQGTQVTVSS | high polyreactivity
QVQLVESGGGLVQAGGSLRLSSAASGSLFDGNAMGWYRQAPGKEREFVAAITSSDGSTSYADSVKGRFTISRDNAKNTVYLQMNSLKPEDTAVYYCNVDDYFWPGAKFDYWGQGSQVTVSS | low polyreactivity
